This note sets out measurements from article PMC3929782.

This assay addresses Cy-5-labelled H2A/H2B dimer, wild type (UniProt P02281). The assay is described as follows: fluorescence polarisation. On the technique in general: In fluorescence polarisation assays a small probe gives low polarisation when free and higher when bound to something large.

Take “RNF168 RING domain (residues 1–189) (from UniProt Q8IYW5 1-189) (domain or fragment)”: the Kd (as a rule, the concentration at which binding is half-saturated) worked out at 1000 nM.
